Laboratory results taken from patent publication US20260295010 (published 2026).
Like-named read-outs stand apart in the source and are kept apart here.

T1: IL-12RB2-hFc (human, UniProt Q99665)
T1 chain: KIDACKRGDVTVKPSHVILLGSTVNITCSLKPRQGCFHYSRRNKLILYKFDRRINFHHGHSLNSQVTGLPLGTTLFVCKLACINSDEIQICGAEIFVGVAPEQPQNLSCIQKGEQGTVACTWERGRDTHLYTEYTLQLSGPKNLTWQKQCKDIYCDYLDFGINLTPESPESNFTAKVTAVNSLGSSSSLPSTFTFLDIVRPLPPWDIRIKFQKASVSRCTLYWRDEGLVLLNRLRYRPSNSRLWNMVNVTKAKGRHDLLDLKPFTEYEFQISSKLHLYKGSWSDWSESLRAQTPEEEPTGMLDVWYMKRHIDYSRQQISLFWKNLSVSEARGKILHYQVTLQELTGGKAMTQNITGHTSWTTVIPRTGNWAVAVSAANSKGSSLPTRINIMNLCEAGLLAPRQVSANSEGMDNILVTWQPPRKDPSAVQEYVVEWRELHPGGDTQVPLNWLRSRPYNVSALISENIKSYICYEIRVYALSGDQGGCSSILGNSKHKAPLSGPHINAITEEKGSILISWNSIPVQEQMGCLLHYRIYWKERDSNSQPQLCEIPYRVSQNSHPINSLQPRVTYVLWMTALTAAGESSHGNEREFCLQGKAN


Assays:
Assay in all cases: SPR, 25C
IL-12RB2-hFc [1] = biological target: T1, IL-12RB2-hFc
IL-12RB1-hFc [2] = biological target: T2, IL-12RB1-hFc (human, UniProt P42701)
IL-12RB2-hFc [3] = biological target: T1, IL-12RB2-hFc
IL-12RB1-hFc [4] = biological target: T2, IL-12RB1-hFc; remark: listed apart in the source
IL-12RB1-hFc [5] = biological target: T2, IL-12RB1-hFc; remark: listed apart in the source

Binder	Kd (IL-12RB2-hFc [1]) [pM]	Kd (IL-12RB1-hFc [2]) [pM]	Kd (IL-12RB2-hFc [3]) [pM]	Kd (IL-12RB1-hFc [4]) [pM]	koff (IL-12RB1-hFc [5]) [s⁻¹]
IL-12p70 L197A (protein) chain 1: MIWELKKDVYVVELDWYPDAPGEMVVLTCDTPEEDGITWTLDQSSEVLGSGKTLTIQVKEFGDAGQYTCHKGGEVLSHSLLLLHKKEDGIWSTDILKDQKEPKNKTFLRCEAKNYSGRFTCWWLTTISTDLTFSVKSSRGSSDPQGVTCGAATLSAERVRGDNKEYEYSVECQEDSACPAAEESLPIEVMVDAVHKAKYENYTSSFFIRDIIKPDPPKNLQLKPLKNSRQVEVSWEYPDTWSTPHSYFSLTFSVQVQGKSKREKKDRVFTDKTSATVICRKNASISVRAQDRYYSSSWSEWASVPCSGGGSHHHHHH chain 2: MRNLPVATPDPGMFPSLHHSQNLLRAVSNMLQKARQTLEFYPCTSEEIDHEDITKDKTSTVEACLPLELTKNESCLNSRETSFITNGSSLASRKTSFMMALCLSSIYEDLKMYQVEFKTMNAKLLMDPKRQIFLDQNMLAVIDELMQALNFNSETVPQKSSLEEPDFYKTKIKLCILLHAFRIRAVTIDRVMSYLNAS	2300	310	550	50	–
IL-12p70 W16A (protein) chain 1: MIWELKKDVYVVELDAYPDAPGEMVVLTCDTPEEDGITWTLDQSSEVLGSGKTLTIQVKEFGDAGQYTCHKGGEVLSHSLLLLHKKEDGIWSTDILKDQKEPKNKTFLRCEAKNYSGRFTCWWLTTISTDLTFSVKSSRGSSDPQGVTCGAATLSAERVRGDNKEYEYSVECQEDSACPAAEESLPIEVMVDAVHKLKYENYTSSFFIRDIIKPDPPKNLQLKPLKNSRQVEVSWEYPDTWSTPHSYFSLTFSVQVQGKSKREKKDRVFTDKTSATVICRKNASISVRAQDRYYSSSWSEWASVPCSGGGSHHHHHH chain 2: MRNLPVATPDPGMFPSLHHSQNLLRAVSNMLQKARQTLEFYPCTSEEIDHEDITKDKTSTVEACLPLELTKNESCLNSRETSFITNGSSLASRKTSFMMALCLSSIYEDLKMYQVEFKTMNAKLLMDPKRQIFLDQNMLAVIDELMQALNFNSETVPQKSSLEEPDFYKTKIKLCILLHAFRIRAVTIDRVMSYLNAS	16000	–	620	–	0.049
IL-12p70 K196E (protein) chain 1: MIWELKKDVYVVELDWYPDAPGEMVVLTCDTPEEDGITWTLDQSSEVLGSGKTLTIQVKEFGDAGQYTCHKGGEVLSHSLLLLHKKEDGIWSTDILKDQKEPKNKTFLRCEAKNYSGRFTCWWLTTISTDLTFSVKSSRGSSDPQGVTCGAATLSAERVRGDNKEYEYSVECQEDSACPAAEESLPIEVMVDAVHELKYENYTSSFFIRDIIKPDPPKNLQLKPLKNSRQVEVSWEYPDTWSTPHSYFSLTFSVQVQGKSKREKKDRVFTDKTSATVICRKNASISVRAQDRYYSSSWSEWASVPCSGGGSHHHHHH chain 2: MRNLPVATPDPGMFPSLHHSQNLLRAVSNMLQKARQTLEFYPCTSEEIDHEDITKDKTSTVEACLPLELTKNESCLNSRETSFITNGSSLASRKTSFMMALCLSSIYEDLKMYQVEFKTMNAKLLMDPKRQIFLDQNMLAVIDELMQALNFNSETVPQKSSLEEPDFYKTKIKLCILLHAFRIRAVTIDRVMSYLNAS	2700	700	420	150	–

Further binders by falling Kd (IL-12RB2-hFc [3]), results first:

Kd (IL-12RB2-hFc [1]) [pM]	Kd (IL-12RB1-hFc [2]) [pM]	Kd (IL-12RB2-hFc [3]) [pM]	Kd (IL-12RB1-hFc [4]) [pM]	koff (IL-12RB1-hFc [5]) [s⁻¹]	Binder
1900	440	1200	750	–	IL-12p70 D94K (protein) chain 1: MIWELKKDVYVVELDWYPDAPGEMVVLTCDTPEEDGITWTLDQSSEVLGSGKTLTIQVKEFGDAGQYTCHKGGEVLSHSLLLLHKKEDGIWSTKILKDQKEPKNKTFLRCEAKNYSGRFTCWWLTTISTDLTFSVKSSRGSSDPQGVTCGAATLSAERVRGDNKEYEYSVECQEDSACPAAEESLPIEVMVDAVHKLKYENYTSSFFIRDIIKPDPPKNLQLKPLKNSRQVEVSWEYPDTWSTPHSYFSLTFSVQVQGKSKREKKDRVFTDKTSATVICRKNASISVRAQDRYYSSSWSEWASVPCSGGGSHHHHHH chain 2: MRNLPVATPDPGMFPSLHHSQNLLRAVSNMLQKARQTLEFYPCTSEEIDHEDITKDKTSTVEACLPLELTKNESCLNSRETSFITNGSSLASRKTSFMMALCLSSIYEDLKMYQVEFKTMNAKLLMDPKRQIFLDQNMLAVIDELMQALNFNSETVPQKSSLEEPDFYKTKIKLCILLHAFRIRAVTIDRVMSYLNAS
–	–	610	–	0.0705	IL-12p70 E87K,K196E,K198E (protein) chain 1: MIWELKKDVYVVELDWYPDAPGEMVVLTCDTPEEDGITWTLDQSSEVLGSGKTLTIQVKEFGDAGQYTCHKGGEVLSHSLLLLHKKKDGIWSTDILKDQKEPKNKTFLRCEAKNYSGRFTCWWLTTISTDLTFSVKSSRGSSDPQGVTCGAATLSAERVRGDNKEYEYSVECQEDSACPAAEESLPIEVMVDAVHELEYENYTSSFFIRDIIKPDPPKNLQLKPLKNSRQVEVSWEYPDTWSTPHSYFSLTFSVQVQGKSKREKKDRVFTDKTSATVICRKNASISVRAQDRYYSSSWSEWASVPCSGGGSHHHHHH chain 2: MRNLPVATPDPGMFPSLHHSQNLLRAVSNMLQKARQTLEFYPCTSEEIDHEDITKDKTSTVEACLPLELTKNESCLNSRETSFITNGSSLASRKTSFMMALCLSSIYEDLKMYQVEFKTMNAKLLMDPKRQIFLDQNMLAVIDELMQALNFNSETVPQKSSLEEPDFYKTKIKLCILLHAFRIRAVTIDRVMSYLNAS
1100	500	560	130	–	IL-12p70 K105E (protein) chain 1: MIWELKKDVYVVELDWYPDAPGEMVVLTCDTPEEDGITWTLDQSSEVLGSGKTLTIQVKEFGDAGQYTCHKGGEVLSHSLLLLHKKEDGIWSTDILKDQKEPKNETFLRCEAKNYSGRFTCWWLTTISTDLTFSVKSSRGSSDPQGVTCGAATLSAERVRGDNKEYEYSVECQEDSACPAAEESLPIEVMVDAVHKLKYENYTSSFFIRDIIKPDPPKNLQLKPLKNSRQVEVSWEYPDTWSTPHSYFSLTFSVQVQGKSKREKKDRVFTDKTSATVICRKNASISVRAQDRYYSSSWSEWASVPCSGGGSHHHHHH chain 2: MRNLPVATPDPGMFPSLHHSQNLLRAVSNMLQKARQTLEFYPCTSEEIDHEDITKDKTSTVEACLPLELTKNESCLNSRETSFITNGSSLASRKTSFMMALCLSSIYEDLKMYQVEFKTMNAKLLMDPKRQIFLDQNMLAVIDELMQALNFNSETVPQKSSLEEPDFYKTKIKLCILLHAFRIRAVTIDRVMSYLNAS
